Data published in paper PMC1266349, “Nonnatural amino acid incorporation into the methionine 214 position of the metzincin Pseudomonas aeruginosa alkaline protease” (BMC Biochemistry, 2005).

Test system: N=C(N)NCCC[C@H](NC(=O)OCc1ccccc1)C(=O)N[C@@H](CCCNC(=N)N)C(=O)Nc1ccc([N+](=O)[O-])cc1
Experiment: purified protein
Settings: 20 mM HEPES, 100 μg enzyme per assay; revised conditions, unlabelled recombinant protein

Substance: AprA (alkaline protease from Pseudomonas aeruginosa), mature full-length (Pseudomonas aeruginosa PAO1)
- Km: 15.4 ± 0.9 µM
- kcat: 0.0095 ± 0.00033 s⁻¹
